# Source: doi:10.1101/681668 (bioRxiv, 2019)
# Positions count from the first letter of the chain named.
# T1: GST-CDC6 (human, UniProt Q99741 1-560)
# T1 sequence: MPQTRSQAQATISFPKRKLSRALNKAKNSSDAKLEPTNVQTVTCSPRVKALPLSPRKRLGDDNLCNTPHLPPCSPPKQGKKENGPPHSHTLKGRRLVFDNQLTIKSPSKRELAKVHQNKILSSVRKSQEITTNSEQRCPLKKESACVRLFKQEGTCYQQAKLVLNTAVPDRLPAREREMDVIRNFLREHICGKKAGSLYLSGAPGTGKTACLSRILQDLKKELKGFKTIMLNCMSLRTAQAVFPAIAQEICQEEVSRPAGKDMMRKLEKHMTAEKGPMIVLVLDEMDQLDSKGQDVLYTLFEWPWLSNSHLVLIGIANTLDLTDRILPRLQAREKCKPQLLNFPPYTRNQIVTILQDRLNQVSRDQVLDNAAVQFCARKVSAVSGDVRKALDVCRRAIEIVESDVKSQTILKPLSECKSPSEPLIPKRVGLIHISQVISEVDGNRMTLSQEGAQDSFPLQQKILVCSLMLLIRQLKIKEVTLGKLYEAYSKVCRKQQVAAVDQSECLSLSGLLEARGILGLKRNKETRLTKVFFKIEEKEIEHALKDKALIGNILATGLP
# T2: MBP-ORC1 (human, UniProt Q13415 1-861)
# T2 sequence: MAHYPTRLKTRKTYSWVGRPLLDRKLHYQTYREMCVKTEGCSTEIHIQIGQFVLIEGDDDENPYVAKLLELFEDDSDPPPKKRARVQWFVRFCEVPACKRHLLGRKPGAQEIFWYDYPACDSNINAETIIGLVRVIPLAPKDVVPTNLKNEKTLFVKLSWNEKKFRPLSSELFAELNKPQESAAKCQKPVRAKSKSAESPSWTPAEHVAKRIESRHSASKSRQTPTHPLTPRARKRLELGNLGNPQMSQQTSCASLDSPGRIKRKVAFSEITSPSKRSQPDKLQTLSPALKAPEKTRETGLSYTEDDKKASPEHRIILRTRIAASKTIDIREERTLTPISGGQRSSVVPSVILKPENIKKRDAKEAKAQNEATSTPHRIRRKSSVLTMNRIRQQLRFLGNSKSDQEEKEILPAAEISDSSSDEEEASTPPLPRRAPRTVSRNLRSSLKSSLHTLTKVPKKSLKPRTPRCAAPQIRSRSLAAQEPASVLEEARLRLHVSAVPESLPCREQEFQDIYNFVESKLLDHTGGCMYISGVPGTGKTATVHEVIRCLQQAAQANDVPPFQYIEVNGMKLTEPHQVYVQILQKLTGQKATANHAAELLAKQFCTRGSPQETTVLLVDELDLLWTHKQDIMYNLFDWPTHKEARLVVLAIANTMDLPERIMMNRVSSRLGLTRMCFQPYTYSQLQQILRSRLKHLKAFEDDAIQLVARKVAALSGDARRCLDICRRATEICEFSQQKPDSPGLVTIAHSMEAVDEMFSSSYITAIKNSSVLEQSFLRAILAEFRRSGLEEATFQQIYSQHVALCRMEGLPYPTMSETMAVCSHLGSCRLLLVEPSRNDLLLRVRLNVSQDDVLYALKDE
# T3: ORC1 230-400-His (human, UniProt Q13415 230-400)
# T3 sequence: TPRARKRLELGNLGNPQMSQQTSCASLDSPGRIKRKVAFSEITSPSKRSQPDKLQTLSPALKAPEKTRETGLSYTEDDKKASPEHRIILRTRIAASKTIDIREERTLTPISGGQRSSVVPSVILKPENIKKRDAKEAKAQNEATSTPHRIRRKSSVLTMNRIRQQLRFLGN
# B1: MBP-ORC1-350-400 (domain or fragment)
# chain: SVILKPENIKKRDAKEAKAQNEATSTPHRIRRKSSVLTMNRIRQQLRFLGN
# B2: MBP-ORC1 1-240 (domain or fragment)
# chain: MAHYPTRLKTRKTYSWVGRPLLDRKLHYQTYREMCVKTEGCSTEIHIQIGQFVLIEGDDDENPYVAKLLELFEDDSDPPPKKRARVQWFVRFCEVPACKRHLLGRKPGAQEIFWYDYPACDSNINAETIIGLVRVIPLAPKDVVPTNLKNEKTLFVKLSWNEKKFRPLSSELFAELNKPQESAAKCQKPVRAKSKSAESPSWTPAEHVAKRIESRHSASKSRQTPTHPLTPRARKRLELG
# B3: MBP-ORC1-230-400 A-A (domain or fragment)
# chain: T3 sequence with K6A, L8A
# B4: MBP-ORC1-180-240 (domain or fragment)
# chain: QESAAKCQKPVRAKSKSAESPSWTPAEHVAKRIESRHSASKSRQTPTHPLTPRARKRLELG
# B5: MBP-ORC1 fragment (165-250) (domain or fragment)
# chain: FRPLSSELFAELNKPQESAAKCQKPVRAKSKSAESPSWTPAEHVAKRIESRHSASKSRQTPTHPLTPRARKRLELGNLGNPQMSQQ
# B6: MBP-ORC1 180-400 (domain or fragment)
# chain: QESAAKCQKPVRAKSKSAESPSWTPAEHVAKRIESRHSASKSRQTPTHPLTPRARKRLELGNLGNPQMSQQTSCASLDSPGRIKRKVAFSEITSPSKRSQPDKLQTLSPALKAPEKTRETGLSYTEDDKKASPEHRIILRTRIAASKTIDIREERTLTPISGGQRSSVVPSVILKPENIKKRDAKEAKAQNEATSTPHRIRRKSSVLTMNRIRQQLRFLGN
# B7: MBP-ORC1-230-400 (domain or fragment)
# chain: T3 sequence
# B8: GST-CDC6 with internal deletion of 11-20 (natural protein)
# chain: MPQTRSQAQARALNKAKNSSDAKLEPTNVQTVTCSPRVKALPLSPRKRLGDDNLCNTPHLPPCSPPKQGKKENGPPHSHTLKGRRLVFDNQLTIKSPSKRELAKVHQNKILSSVRKSQEITTNSEQRCPLKKESACVRLFKQEGTCYQQAKLVLNTAVPDRLPAREREMDVIRNFLREHICGKKAGSLYLSGAPGTGKTACLSRILQDLKKELKGFKTIMLNCMSLRTAQAVFPAIAQEICQEEVSRPAGKDMMRKLEKHMTAEKGPMIVLVLDEMDQLDSKGQDVLYTLFEWPWLSNSHLVLIGIANTLDLTDRILPRLQAREKCKPQLLNFPPYTRNQIVTILQDRLNQVSRDQVLDNAAVQFCARKVSAVSGDVRKALDVCRRAIEIVESDVKSQTILKPLSECKSPSEPLIPKRVGLIHISQVISEVDGNRMTLSQEGAQDSFPLQQKILVCSLMLLIRQLKIKEVTLGKLYEAYSKVCRKQQVAAVDQSECLSLSGLLEARGILGLKRNKETRLTKVFFKIEEKEIEHALKDKALIGNILATGLP
# B9: GST-CDC6 with internal deletion of 21-30 (natural protein)
# chain: B8 chain with R11T, A12I, L13S, N14F, K15P, A16K, K17R, N18K, S19L
# B10: GST-CDC6 1-110 (domain or fragment)
# chain: MPQTRSQAQATISFPKRKLSRALNKAKNSSDAKLEPTNVQTVTCSPRVKALPLSPRKRLGDDNLCNTPHLPPCSPPKQGKKENGPPHSHTLKGRRLVFDNQLTIKSPSKR
# B11: GST-CDC6 with internal deletion of 71-90 (natural protein)
# chain: MPQTRSQAQATISFPKRKLSRALNKAKNSSDAKLEPTNVQTVTCSPRVKALPLSPRKRLGDDNLCNTPHLLKGRRLVFDNQLTIKSPSKRELAKVHQNKILSSVRKSQEITTNSEQRCPLKKESACVRLFKQEGTCYQQAKLVLNTAVPDRLPAREREMDVIRNFLREHICGKKAGSLYLSGAPGTGKTACLSRILQDLKKELKGFKTIMLNCMSLRTAQAVFPAIAQEICQEEVSRPAGKDMMRKLEKHMTAEKGPMIVLVLDEMDQLDSKGQDVLYTLFEWPWLSNSHLVLIGIANTLDLTDRILPRLQAREKCKPQLLNFPPYTRNQIVTILQDRLNQVSRDQVLDNAAVQFCARKVSAVSGDVRKALDVCRRAIEIVESDVKSQTILKPLSECKSPSEPLIPKRVGLIHISQVISEVDGNRMTLSQEGAQDSFPLQQKILVCSLMLLIRQLKIKEVTLGKLYEAYSKVCRKQQVAAVDQSECLSLSGLLEARGILGLKRNKETRLTKVFFKIEEKEIEHALKDKALIGNILATGLP
# B12: GST-CDC6 with internal deletion of 51-70 (natural protein)
# chain: MPQTRSQAQATISFPKRKLSRALNKAKNSSDAKLEPTNVQTVTCSPRVKAPPCSPPKQGKKENGPPHSHTLKGRRLVFDNQLTIKSPSKRELAKVHQNKILSSVRKSQEITTNSEQRCPLKKESACVRLFKQEGTCYQQAKLVLNTAVPDRLPAREREMDVIRNFLREHICGKKAGSLYLSGAPGTGKTACLSRILQDLKKELKGFKTIMLNCMSLRTAQAVFPAIAQEICQEEVSRPAGKDMMRKLEKHMTAEKGPMIVLVLDEMDQLDSKGQDVLYTLFEWPWLSNSHLVLIGIANTLDLTDRILPRLQAREKCKPQLLNFPPYTRNQIVTILQDRLNQVSRDQVLDNAAVQFCARKVSAVSGDVRKALDVCRRAIEIVESDVKSQTILKPLSECKSPSEPLIPKRVGLIHISQVISEVDGNRMTLSQEGAQDSFPLQQKILVCSLMLLIRQLKIKEVTLGKLYEAYSKVCRKQQVAAVDQSECLSLSGLLEARGILGLKRNKETRLTKVFFKIEEKEIEHALKDKALIGNILATGLP
# B13: MBP-ORC1-100-250 (domain or fragment)
# chain: RHLLGRKPGAQEIFWYDYPACDSNINAETIIGLVRVIPLAPKDVVPTNLKNEKTLFVKLSWNEKKFRPLSSELFAELNKPQESAAKCQKPVRAKSKSAESPSWTPAEHVAKRIESRHSASKSRQTPTHPLTPRARKRLELGNLGNPQMSQQ
# B14: ORC1-180-240-His (domain or fragment)
# chain: B4 chain
# Biological target: B14
# Assay: pull-down
row,binding result,Binder
1,binds,B1

# Biological target: T1, GST-CDC6
# Assay: pull-down
row,binding result,Binder
1,binds,B1
2,binds,B2
3,binds,B3
4,binds,B4
5,binds,B5
6,binds,B6
7,binds,B7

# Biological target: T2, MBP-ORC1
# Assay: pull-down
row,binding result,Binder
1,binds,B8
2,binds,B9
3,binds,B10
4,binds,B11
5,binds,B12

# Biological target: T3, ORC1 230-400-His
# Assay: pull-down
row,binding result,Binder
1,binds,B13

# Biological target: B7
# Assay: pull-down
row,binding result,Binder
1,binds,B14
